Patent publication US20250257107

Molecular target: fusion of human collagen type I, alpha 1 solubility-enhancing sequence (HsCol1a1-27), TEV cleavage site ENLYFQG and human keratin type 31 polypeptide fragment (K31)

B1: AcTEV protease (protein)
chain: GESLFKGPRDYNPISSTICHLTNESDGHTTSLYGIGFGPFIITNKHLFRRNNGTLLVQSLHGVFKVKNTTTLQQHLIDGRDMIIIRMPKDFPPFPQKLKFREPQREERICLVTTNFQTKSMSSMVSDTSCTFPSSDGIFWKHWIQTKDGQCGSPLVSTRDGFIVGIHSASNFTNTNNYFTSVPKNFMELLTNQEAQQWVSGWRLNADSVLWGGHKVFMSKPEEPFQPVKEATQLMNELVYSQ
cleavage of the fusion protein, SDS-PAGE with Coomassie Blue: confirm that the cleavage was successful
